Values quoted from earlier work in publication PMC2962622.

Target: NIFK 44-residue phosphopeptide (Homo sapiens) (UniProt Q9BYG3)
UniProt Q9BYG3, sequence (Q9BYG3 2-293): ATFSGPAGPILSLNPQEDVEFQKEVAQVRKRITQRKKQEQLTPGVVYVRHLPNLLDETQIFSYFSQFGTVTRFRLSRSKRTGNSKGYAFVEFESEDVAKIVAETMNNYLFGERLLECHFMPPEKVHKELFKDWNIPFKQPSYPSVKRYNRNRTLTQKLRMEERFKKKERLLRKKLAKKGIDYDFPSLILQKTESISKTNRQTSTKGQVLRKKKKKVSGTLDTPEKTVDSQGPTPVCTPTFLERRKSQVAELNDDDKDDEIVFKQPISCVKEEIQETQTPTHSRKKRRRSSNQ

Kd: 77 nM
Substance: Ki67 FHA (from UniProt P46013)
